Data on two molecules can be found in PMC10370059 (bioRxiv, 2023).

The term stoichiometry N denotes a count of units in the complex or per binding partner.

Experiment [1] deals with biotinylated Arr3_ΔC loaded with IP6 (bovine) (UniProt P32120). The experiment can be described thus: SEC. Background: Size exclusion chromatography separates by hydrodynamic size, large species first.
Experiment [2] deals with Arr3_ΔC (preactivated arrestin3, truncated after residue 392) (bovine, UniProt P32120). Put plainly: pull-down.
Experiment [3] concerns the target biotinylated Arr3_ΔC loaded with IP6 (bovine, UniProt P32120, biotin (sulfo-NHS-Biotin, >95% biotinylated)). Put plainly: ELISA.

In experiment [1], “biotinylated Arr3_ΔC loaded with IP6 (from UniProt P32120 1-392) (domain or fragment)” had a stoichiometry N of 3.

B1: Fab7 (Fab, V domains shown)
VH: EVQLVESGGGLVQPGGSLRLSCAASGFNVSSSYIHWVRQAPGKGLEWVASISSYYGYTYYADSVKGRFTISADTSKNTAYLQMNSLRAEDTAVYYCARKSMYHRGWGWLSWVYGAMDYWGQGTLVTVSS
VL: DIQMTQSPSSLSASVGDRVTITCRASQSVSSAVAWYQQKPGKAPKLLIYSASSLYSGVPSRFSGSRSGTDFTLTISSLQPEDFATYYCQQSYYYPITFGQGTKVEIK
B1: the binding result in experiment [2] and in experiment [3] was “binds” throughout.
